Measurements published in US20150361176A1 (GlaxoSmithKline, published 2015).
Residue numbers refer to the chain shown, from its start. Values joined by “and” are separate entries in the source; they are usually repeats but may differ in a detail not shown here. Identical values can stand only once.

B1: DOM23h-439-25 (VHH)
VHH: EVQLLESGGGLVQPGGSLRLSCAASGFTFGTEQMWWVRQAPGKGLEFVSRIDSPGGRTYYADSVKGRFTISRDNSKNTLYLQMNSLRAEDTAVYYCAKRRPTGVSGTFYDYWGQGTLVTVSS
notes: expressed from pC10
B2: DOM23h-439-40 (DOM23h-439-25 + C-terminal Alanine) (VHH)
VHH: B1 VHH
notes: human VH dAb
B3: DOM23h-439-42 (DOM23h-439-25 + C-terminal Alanine + 61N) (VHH)
VHH: B1 VHH with D62N
notes: human VH dAb
B4: DOM23h-439-35 (VHH)
VHH: B1 VHH with E32D, D62N, R100Q, T102A, T107K, F108Y, Y109V
notes: expressed from pC10
B5: DOM23h-439-41 (DOM23h-439-25 + C-terminal Alanine + 48I) (VHH)
VHH: B1 VHH with V48I
notes: human VH dAb
B6: DOM23h-854 (VHH, not shown: small tags and cut ends)
VHH: EVQLLESGGGLVQPGGSLRLSCAASGFTFAQDRMWWVRQAPGKGLEWVSAISGSGGSTYYADSVKGRFTISRDNSKNTLYLQMNSLRAEDTAVYYCAKQDLHGTSSLFDYWGQGTLVTVSS
B7: DOM23h-271-101 (VHH)
VHH: EVQLLESGGGLVQPGGSLRLSCAASGFTFTEYRMWWVRQAPGKGLEWVSAIEPIGNRTYYADSVKGRFTISRDNSKNTLYLQMNSLRAEDTAVYYCAKQIPGRKWTANGRKDYWGQGTLVTVSS
notes: human VH dAb from phage display maturation of DOM23h-271-7; not shown: C-terminal FLAG tag from vector pDOM10
B8: DOM23h-271-130 (DOM23h-271-123 + C-terminal Alanine) (VHH)
VHH: B7 VHH with F27S, N56H, I100A, R103E, T106A, A107R, N108R, G109W, R110D, K111L
notes: human VH dAb
B9: DOM23h-271-106 (VHH)
VHH: B7 VHH with I100F, G109S, K111S
notes: human VH dAb from phage display maturation of DOM23h-271-7; also called 271-106a; 271-106b; not shown: C-terminal FLAG tag from vector pDOM10
B10: DOM23h-271-129 (VHH)
VHH: B7 VHH with F27S, N56H, I100A, G102N, R103Q, K104R, W105Y, T106V, N108R, K111L
notes: expressed from pC10
B11: DOM23h-271-123 (VHH)
VHH: B7 VHH with F27S, N56H, I100A, R103E, T106A, A107R, N108R, G109W, R110D, K111L
notes: expressed from pC10
B12: DOM23h-271-132 (DOM23h-271-123 + C-terminal Alanine + 64R) (VHH)
VHH: EVQLLESGGGLVQPGGSLRLSCAASGSTFTEYRMWWVRQAPGKGLEWVSAIEPIGHRTYYADSVRGRFTISRDNSKNTLYLQMNSLRAEDTAVYYCAKQAPGEKWARRWDLDYWGQGTLVTVSS
notes: human VH dAb
B13: DOM23h-271-105 (VHH)
VHH: B7 VHH with R103Q, K104R, A107G, G109S, K111F
notes: as for B7
B14: DOM23h-271-133 (DOM23h-271-123 + C-terminal Alanine + 61N64R) (VHH)
VHH: B12 VHH with D62N
notes: human VH dAb
B15: DOM23h-271-114 (VHH)
VHH: B7 VHH with W105G, G109S, K111F
notes: as for B7
B16: DOM23h-271-102 (VHH)
VHH: B7 VHH with F27S, N56H, G109S, K111F
notes: as for B7
B17: DOM23h-271-131 (DOM23h-271-123 + C-terminal Alanine + 61N) (VHH)
VHH: B12 VHH with D62N, R65K
notes: human VH dAb
B18: DOM23h-866 (VHH, not shown: small tags and cut ends)
VHH: EVQLLESGGGLVQPGGSLRLSCAASGFTFSNYWMRWARQAPGKGLEWVSYITPKGDHTYYADSVKGRFTISRDNSKNTLYLQMNSLRAEDTAVYYCAESLHNERVKHFDYWGQGTLVTVSS
B19: DOM23h-865 (VHH, not shown: small tags and cut ends)
VHH: EVQLLESGGGLVQPGGSLRLSCAASGFTFRSYEMTWVRQAPGKGLEWVSKIDPSGRFTYYADSVKGRFTISRDNSKNTLYLQMNSLRAEDTAVYYCAKGRTDLQLFDYWGQGTLVTVSS
B20: DOM23h-874 (VHH, not shown: small tags and cut ends)
VHH: EVQLLESGGGLVQPGGSLRLSCAASGFTFTSYRMWWVRQAPGKGLEWVSVIDSTGSATYYADSVKGRFTISRDNSKNTLYLQMNSLRAEDTAVYYCAKQQAGSAMGEFDYWGQGTLVTVSS

Key:
cynomolgus TGF-β RII/Fc = target: T1, cynomolgus TGF-β RII/Fc (cynomolgus); assay: SPR Biacore T200, receptor-Fc captured by anti-human IgG, dAb as analyte, 1:1 model
T1 construct: extracellular domain; also called Cyno TGFBRII; Cyno TGFbRII
Procedure: (§1) Anti-human IgG was immobilised on a Biacore CM4 chip by primary amine coupling according to the manufacturer's instructions. Human TGF-β RII/Fc, cynomolgus TGF-β RII/Fc or human Fc fragment were captured on this surface. Domain antibodies were passed over the two captured receptors at 3 concentrations of 100, 10 and 1 nM (DOM23h-439 dAbs) or 100, 25 and 6.25 nM (DOM23h-271 dAbs). Only the 100 nM concentration of each dab was passed over human Fc fragment to confirm specificity of binding to the extracellular TGF-β RII domain. An injection of buffer over the captured antigen surface was used for double referencing. […] All runs were carried out at 25° C. using HBS-EP buffer as running buffer. Data were generated using the BIACORE™ T200 and fitted to the 1:1 binding model inherent to the software. […] The DOM23h-271 dAbs and the DOM23h-439 lineages were run in separate experiments.

[1] = target: T2, recombinant human TGF-β RII/Fc chimera protein (human, UniProt P37173 24-159); assay: as above
T2 construct: range 24-159; Made in HEK-F cells; Biotinylated where it was put on SA chips, otherwise captured by anti-human IgG; also called human TGFbRII/Fc; hRII-Fc; not shown: Fc region of human IgG1
T2 sequence (P37173 24-159 limits assumed, change not shown): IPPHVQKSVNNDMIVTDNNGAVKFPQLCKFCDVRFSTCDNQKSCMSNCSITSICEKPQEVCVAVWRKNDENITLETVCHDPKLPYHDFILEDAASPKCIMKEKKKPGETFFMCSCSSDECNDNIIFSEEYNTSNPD
Procedure: as §1

[2] = target: T3, human TGF-βRII on cells (SBE-bla HEK 293T cells; A549 cells) (human, UniProt P37173 23-567); assay: cell-based or functional assay
T3 sequence (P37173 23-567): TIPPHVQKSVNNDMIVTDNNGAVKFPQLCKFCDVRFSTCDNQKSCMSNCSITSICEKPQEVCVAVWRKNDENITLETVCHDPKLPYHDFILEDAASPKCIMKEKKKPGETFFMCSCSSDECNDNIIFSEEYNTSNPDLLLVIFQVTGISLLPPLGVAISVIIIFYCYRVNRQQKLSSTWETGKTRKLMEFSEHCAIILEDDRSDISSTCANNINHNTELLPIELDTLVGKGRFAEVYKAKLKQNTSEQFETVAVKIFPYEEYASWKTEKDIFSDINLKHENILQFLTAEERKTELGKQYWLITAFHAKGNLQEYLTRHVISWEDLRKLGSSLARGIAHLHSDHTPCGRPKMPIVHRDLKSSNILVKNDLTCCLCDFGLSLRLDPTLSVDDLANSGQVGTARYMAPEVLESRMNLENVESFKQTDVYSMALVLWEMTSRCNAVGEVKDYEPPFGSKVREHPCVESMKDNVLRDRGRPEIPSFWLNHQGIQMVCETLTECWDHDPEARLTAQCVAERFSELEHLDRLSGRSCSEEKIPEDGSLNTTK

[3] = target: T3, human TGF-βRII on cells (SBE-bla HEK …); assay: cell-based or functional assay; remark: listed apart in the source
[4] = target: T2, recombinant human TGF-β RII/Fc chimera …; assay: SPR Biacore T100, human TGFbRII-FC, 1:1 model
Procedure: Triplet or doped libraries in separate CDR1, CDR2 and CDR3 pools were subjected to rounds of phage selection as described above against either biotinylated human TGF-β RII/Fc antigen over 4 rounds in concentrations of 10 nM, 1 nM, 100 pM and 20 pM respectively, or two rounds of selection using 20 pM followed by 2 pM antigen. Inserts from phage selections were cloned into the pDOM10 expression vector and supernatants with off rates improved over parent were selected for further study. Domain antibodies were expressed and purified their affinity and bioactivity against human TGF-β RII/Fc antigen tested on the BIACORE™ T100 and in the Cell sensor assay described above (data not shown).
BIACORE™ analysis was carried out using a capture surface on a CM4 chip. Anti-human IgG was used as the capturing agent and coupled to a CM4 biosensor chip by primary amine coupling. The Antigen molecule fused to the human Fc was captured on this immobilised surface to a level from 250 to 300 resonance units and defined concentrations of Domain antibodies diluted in running buffer were passed over this captured surface. An injection of buffer over the captured antigen surface was used for double referencing. […] All runs were carried out at 25° C. using HBS-EP buffer as running buffer. Data were generated using the BIACORE™ T100 and fitted to the 1:1 binding model inherent to the software.

Row | Binder | Kd (cynomolgus TGF-β RII/Fc) [nM] | koff (cynomolgus TGF-β RII/Fc) [s⁻¹] | kon (cynomolgus TGF-β RII/Fc) [M⁻¹ s⁻¹] | Kd [1] [nM] | koff [1] [s⁻¹] | kon [1] [M⁻¹ s⁻¹] | IC50 nM, Mean (SBE-bla HEK 293T cell sensor assay) [2] [nM] | IC50 nM, Mean (SBE-bla HEK 293T cell sensor assay, h2) [3] [nM] | Kd [4] | koff [4] | kon [4]
1 | B1 | 0.304 | 0.00273 | 8.99e+06 | 0.0817 | 0.000634 | 7.77e+06 | 4 | – | – | – | –
2 | B2 | 0.366 | 0.00342 | 9.34e+06 | 0.104 | 0.00139 | 1.34e+07 | 14 | – | – | – | –
3 | B3 | 0.011 | 0.00041 | 3.72e+07 | 0.0032 | 0.000131 | 4.09e+07 | 0.7 | – | – | – | –
4 | B4 | 0.0291 | 0.000675 | 2.32e+07 | 0.00983 | 0.000222 | 2.26e+07 | 0.5 | – | – | – | –
5 | B5 | 0.0333 | 0.000522 | 1.57e+07 | 0.0104 | 0.000187 | 1.81e+07 | 1.7 | – | – | – | –
6 | B6 | – | – | – | – | – | – | – | > 9550 | – | – | –
7 | B7 | – | – | – | – | – | – | – | – | 5.4 nM | 0.0201 s⁻¹ | 3.73e+06 M⁻¹ s⁻¹
8 | B8 | 0.124 | 0.000324 | 2.61e+06 | 0.123 | 0.000309 | 2.51e+06 | 37 | – | – | – | –
9 | B9 | – | – | – | – | – | – | – | – | 3.16 nM and 2.88 nM | 0.0233 s⁻¹ and 0.0195 s⁻¹ | 7.39e+06 M⁻¹ s⁻¹ and 6.77e+06 M⁻¹ s⁻¹
10 | B10 | 0.0712 | 0.000427 | 6e+06 | 0.0741 | 0.000411 | 5.55e+06 | 22.7 | – | – | – | –
11 | B11 | 0.104 | 0.00032 | 3.08e+06 | 0.102 | 0.000293 | 2.89e+06 | 18.3 | – | – | – | –
12 | B12 | 0.0185 | 0.000238 | 1.29e+07 | 0.0182 | 0.000222 | 1.22e+07 | 21 | – | – | – | –
13 | B13 | – | – | – | – | – | – | – | – | 2.27 nM and 2.6 nM | 0.00747 s⁻¹ and 0.00798 s⁻¹ | 3.29e+06 M⁻¹ s⁻¹ and 3.07e+06 M⁻¹ s⁻¹
14 | B14 | 0.00985 | 8.71e-05 | 8.84e+06 | 0.00909 | 7.7e-05 | 8.47e+06 | 2.4 | – | – | – | –
15 | B15 | – | – | – | – | – | – | – | – | 6.8 nM | 0.0708 s⁻¹ | 1.04e+07 M⁻¹ s⁻¹
16 | B16 | – | – | – | – | – | – | – | – | 1.64 nM | 0.0153 s⁻¹ | 9.35e+06 M⁻¹ s⁻¹
17 | B17 | 0.0212 | 0.000144 | 6.81e+06 | 0.0217 | 0.000136 | 6.26e+06 | 6.3 | – | – | – | –
18 | B18 | – | – | – | – | – | – | – | > 1760 | – | – | –
19 | B19 | – | – | – | – | – | – | – | 5560 | – | – | –
20 | B20 | – | – | – | – | – | – | – | > 925 | – | – | –
